Source: patent US5702914, “Use of reporter genes for retinoid receptor screening assays having novel retinoid-associated response elements” (The Salk Institute for Biological Studies)

Legend:
[1] = target: T1, RAR alpha:RXR alpha heterodimer (Homo sapiens, UniProt P10276;P19793 P10276:1-462,P19793:1-462); assay: EMSA; less intense than on DR-5; details: tags: rabbit reticulocyte lysate (Promega); from pCMX-hRARalpha and pCMX-hRXRalpha; label: 32P
Protocol: (§1) Gel retardation assays were carried out according to Kliewer et al. (1992, supra). The plasmids pCMX-hRARα and pCMX-hRXRα (Kliewer et al., 1992, supra) were linearlized and capped mRNA was synthesized in vitro using T7 RNA polymerase (Stratagene) according to manufacturer's instructions. Aliquots of mRNA were incubated with rabbit reticulocyte lysate (Promega) for in vitro translation. For gel retardation assay, 5 µl of in vitro translated proteins were preincubated in binding buffer (10 mM Tris[pH8.0], 40 mM KCl, 0.05% Nonidet P-40, 6% glycerol, 1 mM DTT, 5 µg/ml poly[dI.dC]) on ice for 15 minutes. For competition assays, 20 fold molar excess of competitor oligonucleotides was mixed at this step. Oligonucleotides containing DR-5 (RARβ2RARE), HOXB DR-2A (nucleotides 30–43 of SEQ ID NO:1) and HOXB DR-2B (nucleotides 41–54 of SEQ ID NO:2) were used as competitors and probes. Subsequently, ^32P-labelled oligonucleotide probes were added to the reaction mixtures and incubated on ice for 15 minutes. The same oligonucleotides used for the construction of luciferase plasmids were used. Reaction mixtures were resolved by 5% polyacrylamide gel electrophoresis in 0.5×TBE. The dried gels were autoradiographed at −70° C.
The ability of RAR and RXR to form either homo- or heterodimers on the HOXB1 DR-2A and DR-2B response elements was examined using gel retardation assays. […]

[2] = target: T1, RAR alpha:RXR alpha heterodimer; assay: EMSA; less intense than on DR-5; 74-fold RA induction of TK.Luc(DR2B)2 with both receptors in NT2/D1 cells; details: tags: rabbit reticulocyte lysate (Promega); from pCMX-hRARalpha and pCMX-hRXRalpha; label: 32P
Protocol: as §1, with “Aliquots” for “Gel retardation assays were carried out according to Kliewer et al. (1992, supra). The plasmids pCMX-hRARα and pCMX-hRXRα (Kliewer et al., 1992, supra) were linearlized and capped mRNA was synthesized in vitro using T7 RNA polymerase (Stratagene) according to manufacturer's instructions. Aliquots”
The ability of RAR and RXR to form either homo- or heterodimers on the HOXB1 DR-2A and DR-2B response elements was examined using gel retardation assays. The expression plasmids pCMX-hRARα and pCMX-hRXRα were linearized with NheI restriction enzyme. Subsequently, capped mRNA was synthesized in vitro using T7 RNA polymerase (Stratagene) according to the manufacturer's instructions. […]

T1 sequence (P10276 whole entry, chain 1 of 2): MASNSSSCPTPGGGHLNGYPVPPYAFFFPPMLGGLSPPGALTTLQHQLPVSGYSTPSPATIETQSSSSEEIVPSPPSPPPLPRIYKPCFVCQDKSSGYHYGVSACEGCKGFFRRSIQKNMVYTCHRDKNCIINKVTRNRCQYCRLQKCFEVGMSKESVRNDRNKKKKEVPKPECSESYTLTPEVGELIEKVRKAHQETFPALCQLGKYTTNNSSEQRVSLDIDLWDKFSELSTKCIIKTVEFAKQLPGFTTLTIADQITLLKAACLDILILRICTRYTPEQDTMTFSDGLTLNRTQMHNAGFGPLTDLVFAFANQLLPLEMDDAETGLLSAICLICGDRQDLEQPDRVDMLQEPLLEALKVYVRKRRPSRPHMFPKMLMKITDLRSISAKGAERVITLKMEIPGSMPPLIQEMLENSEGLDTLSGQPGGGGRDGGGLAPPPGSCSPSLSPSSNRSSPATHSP
T1 sequence (P19793 whole entry, chain 2 of 2): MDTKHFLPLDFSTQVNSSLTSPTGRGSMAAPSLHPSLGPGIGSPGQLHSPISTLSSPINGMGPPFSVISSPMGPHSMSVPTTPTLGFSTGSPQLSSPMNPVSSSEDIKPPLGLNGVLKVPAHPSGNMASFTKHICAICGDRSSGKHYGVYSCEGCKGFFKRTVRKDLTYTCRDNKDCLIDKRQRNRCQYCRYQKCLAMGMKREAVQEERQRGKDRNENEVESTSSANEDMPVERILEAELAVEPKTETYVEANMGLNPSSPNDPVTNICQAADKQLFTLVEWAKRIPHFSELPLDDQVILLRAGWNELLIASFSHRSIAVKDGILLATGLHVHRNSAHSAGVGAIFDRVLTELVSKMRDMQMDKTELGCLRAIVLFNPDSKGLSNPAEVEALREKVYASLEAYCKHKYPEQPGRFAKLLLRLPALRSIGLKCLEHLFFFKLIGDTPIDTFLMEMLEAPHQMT

Row | Binder | binding result [1] | binding result [2]
1 | HOXB1 DR-2A (dsDNA) DNA 1: TGAACTCTTGCCCT DNA 2: AGGGCAAGAGTTCA | binds | –
2 | HOXB1 DR-2B (dsDNA) DNA 1: CGGGCCTGACCTTTTTACCTCGAAG DNA 2: CTTCGAGGTAAAAAGGTCAGGCCCG | – | binds
